In PMC10783504, “Structural analysis of PLD3 reveals insights into the mechanism of lysosomal 5′ exonuclease-mediated nucleic acid degradation” (Nucleic Acids Research, 2023):

Key:
hPLD3 luminal domain [1] = molecular target: T1, hPLD3 luminal domain (Homo sapiens, UniProt Q8IV08 61-490); experiment: ITC; N = 0.9; dH 30 kcal/mol; ITC: 20 mM HEPES pH 7.5, 150 mM NaCl, 10 C; 380 uM ssDNA in syringe, 10 uM hPLD3 in cell. Crystals: 15% PEG 4000, 0.02 M NaI, 0.9 M ammonium sulfate, 15% glycerol; conditions: protein: recombinant; tags: C-terminal 6xHis; chain copies: 2; single strand
T1 sequence: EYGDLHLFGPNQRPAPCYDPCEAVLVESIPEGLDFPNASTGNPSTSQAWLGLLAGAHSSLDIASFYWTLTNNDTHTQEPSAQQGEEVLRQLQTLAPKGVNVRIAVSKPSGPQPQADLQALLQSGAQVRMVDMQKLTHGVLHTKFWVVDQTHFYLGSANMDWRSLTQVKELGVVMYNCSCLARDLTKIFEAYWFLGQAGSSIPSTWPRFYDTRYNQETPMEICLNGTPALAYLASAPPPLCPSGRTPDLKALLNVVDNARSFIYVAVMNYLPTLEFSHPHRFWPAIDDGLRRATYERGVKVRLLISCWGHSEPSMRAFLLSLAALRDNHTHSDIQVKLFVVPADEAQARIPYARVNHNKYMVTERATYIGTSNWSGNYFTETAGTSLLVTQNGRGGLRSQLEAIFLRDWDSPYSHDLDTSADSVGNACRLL

[2] = molecular target: the molecule itself; experiment: AUC; sedimentation velocity, 40000 rpm, 20°C, 8 or 16 μM hPLD3, absorbance at 280 or 290 nm
[3] = molecular target: the molecule itself; experiment: SEC; HiLoad 16/600 Superdex 200 pg column, HEPES buffer pH 7.5, calibrated with LMW and HMW protein standards
hPLD3 luminal domain [4] = molecular target: T1, hPLD3 luminal domain; experiment: ITC; N = 1.0; dH -12 kcal/mol; no phosphorothioate, cleavable substrate; ITC: 20 mM HEPES pH 7.5, 150 mM NaCl, 10 C; 380 uM ssDNA in syringe, 10 uM hPLD3 in cell. Crystals: 15% PEG 4000, 0.02 M NaI, 0.9 M ammonium sulfate, 15% glycerol; conditions: protein: recombinant; tags: C-terminal 6xHis; chain copies: 2; single strand
hPLD3 luminal domain [5] = molecular target: T1, hPLD3 luminal domain; experiment: ITC; ITC: 20 mM HEPES pH 7.5, 150 mM NaCl, 10 C; 380 uM ssDNA in syringe, 10 uM hPLD3 in cell. Crystals: 15% PEG 4000, 0.02 M NaI, 0.9 M ammonium sulfate, 15% glycerol; conditions: protein: recombinant; tags: C-terminal 6xHis; chain copies: 2; single strand

B1: T*TCATG (ssDNA)
DNA: TTCATG
modifications: phosphorothioate between nt 1 and 2 (mixed Rp/Sp)
hPLD3 luminal domain [1]
  Kd: 28 ± 4 µM

B2: luminal domain (residues 61–490) of human PLD3 (domain or fragment, UniProt Q8IV08 61-490, looked up)
chain: T1 sequence
modifications: N-glycosylated (Man5GlcNAc2, high-mannose type) at Asn97, Asn132, Asn236, Asn284 and Asn387, at least partially; Cys300 oxidized to cysteine sulfonic acid (OCS)
notes: human PLD3 (phospholipase D3), luminal domain, residues 61-490, starting directly after the transmembrane segment; In the crystals residues 72–98 and 101–490 are seen, 61–71 and 99–100 are not visible; also called hPLD3; hPLD3_(61-490); source: HEK293S GnTI- stably transfected monoclonal cell line, secreted into culture supernatant, purified (NiNTA, SEC)
[2]
  stoichiometry N: 4
[3]
  stoichiometry N: 2

B3: TTCATG (ssDNA)
DNA: TTCATG
hPLD3 luminal domain [4]
  Kd: 20 ± 2 µM

B4: T*T*C*A*T*G* (ssDNA)
DNA: TTCATG
modifications: phosphorothioate at all linkages (mixed Rp/Sp); printed with * also after the last G
hPLD3 luminal domain [5]
  binding result: no binding
